Laboratory results as given in US20240252614A1 (Pfizer, published 2024).

Legend:
hMPV125 [1] = molecular target: T1, hMPV125 (hMPV B, UniProt Q6WB98 19-102); experiment: BLI, no stress
T1 construct: L141C-A161C, G239A, T411C-Q434C

hMPV118 [2] = molecular target: T2, hMPV118 (hMPV B, UniProt Q6WB98 19-102); experiment: BLI, no stress
T2 construct: T49I, T150C-R156C

hMPV131 = molecular target: T3, hMPV131 (hMPV B, UniProt Q6WB98 19-102); experiment: BLI, no stress
T3 construct: T49I, L141C-A161C, G239A, T411C-Q434C, A459P

hMPV121 = molecular target: T4, hMPV121 (hMPV B, UniProt Q6WB98 19-102); experiment: BLI, 56C stress
T4 construct: L141C-A161C, T411C-Q434C
Description: (§1) All measurements were conducted at 30° C. temperature in 96-well black plates (Corning, Corning, NY) with a final volume of 240 μL per well at a constant agitation rate of 1000 RPM.
(§2) Conformation integrity of hMPV B F protein mutants were evaluated by a thermal stress experiment. Crude cell culture supernatants were normalized based on the results of the titer quantitation and then incubated for 1 hour at room temperature and two higher temperatures. For the testing of hMPV B single mutants, the two temperatures were 53° C. and 56° C. After the incubation, the protein mutants were probed with prefusion specific monoclonal antibody hMPV-2 by OCTET HTX. Anti-Human IgG Fc Capture (AHC) biosensors were first equilibrated in PB before being dipped into more PB for to establish the initial baseline. Biosensors were incubated with hMPV-2 before being equilibrated in PB to establish the experimental baseline. The mAb-bound biosensors were then dipped into the thermal stresses cell culture supernatants for 5 minutes.

hMPV120 = molecular target: T5, hMPV120 (hMPV B, UniProt Q6WB98 19-102); experiment: BLI, 56C stress
T5 construct: A140C-S149C, T411C-Q434C
Description: as §1, §2

hMPV125 [3] = molecular target: T1, hMPV125; experiment: BLI, 56C stress
Description: as §1, §2

hMPV135 = molecular target: T6, hMPV135 (hMPV B, UniProt Q6WB98 19-102); experiment: BLI, 56C stress
T6 construct: T49I, S149T, A459P
Description: as §1, §2

hMPV118 [4] = molecular target: T2, hMPV118; experiment: BLI, 56C stress
Description: as §1, §2

hMPV130 = molecular target: T7, hMPV130 (hMPV B, UniProt Q6WB98 19-102); experiment: BLI, 56C stress
T7 construct: L141C-A161C, G239A, T411C-Q434C, A459P
Description: as §1, §2

hMPV138 = molecular target: T8, hMPV138 (hMPV B, UniProt Q6WB98 19-102); experiment: BLI, 56C stress
T8 construct: T49I, A140C-S149C, A459P
Description: as §1, §2

hMPV117 = molecular target: T9, hMPV117 (hMPV B, UniProt Q6WB98 19-102); experiment: BLI, 56C stress
T9 construct: T150C-R156C, A459P
Description: as §1, §2

hMPV129 = molecular target: T10, hMPV129 (hMPV B, UniProt Q6WB98 19-102); experiment: BLI, 56C stress
T10 construct: T49I, A140C-S149C, G239A, T365I, T411C-Q434C, A459P
Description: as §1, §2

hMPV119 = molecular target: T11, hMPV119 (hMPV B, UniProt Q6WB98 19-102); experiment: BLI, 56C stress
T11 construct: T49I, T150C-R156C, A459P
Description: as §1, §2

hMPV122 = molecular target: T12, hMPV122 (hMPV B, UniProt Q6WB98 19-102); experiment: BLI, 56C stress
T12 construct: A140C-S149C, T411C-Q434C, A459P
Description: as §1, §2

hMPV137 = molecular target: T13, hMPV137 (hMPV B, UniProt Q6WB98 19-102); experiment: BLI, 56C stress
T13 construct: T49I, A140C-S149C
Description: as §1, §2

hMPV140 = molecular target: T14, hMPV140 (hMPV B, UniProt Q6WB98 19-102); experiment: BLI, 56C stress
T14 construct: T49I, L141C-A161C, T411C-Q434C, A459P
Description: as §1, §2

hMPV132 = molecular target: T15, hMPV132 (hMPV B, UniProt Q6WB98 19-102); experiment: BLI, 56C stress
T15 construct: L141C-A161C, S149T, G239A, T411C-Q434C, A459P
Description: as §1, §2

hMPV136 = molecular target: T16, hMPV136 (hMPV B, UniProt Q6WB98 19-102); experiment: BLI, 56C stress
T16 construct: A140C-S149C, A459P
Description: as §1, §2

hMPV B F WT Control = hMPV B F WT Control (hMPV B, UniProt Q6WB98 19-102); experiment: BLI, 56C stress
Description: as §1, §2

hMPV127 = molecular target: T17, hMPV127 (hMPV B, UniProt Q6WB98 19-102); experiment: BLI, 56C stress
T17 construct: A140C-S149C, G239A, T411C-Q434C, A459P
Description: as §1, §2

hMPV126 = molecular target: T18, hMPV126 (hMPV B, UniProt Q6WB98 19-102); experiment: BLI, 56C stress
T18 construct: T49I, T150C-R156C, G239A, A459P
Description: as §1, §2

hMPV134 = molecular target: T19, hMPV134 (hMPV B, UniProt Q6WB98 19-102); experiment: BLI, 56C stress
T19 construct: T49I, L141C-A161C, S149T, G239A, T365I, T411C-Q434C, A459P
Description: as §1, §2

hMPV139 = molecular target: T20, hMPV139 (hMPV B, UniProt Q6WB98 19-102); experiment: BLI, 56C stress
T20 construct: T49I, L141C-A161C, T411C-Q434C
Description: as §1, §2

PIV1031 = molecular target: T21, PIV1031 (PIV1); experiment: BLI, no stress;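 note: binding of thermally stressed PIV1 F mutant supernatant to mAb on AHC biosensors for 5 min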
T21 construct: A466L, S473L
Description: as §1
(§3) Conformation integrity of PIV1 F protein mutants were evaluated by a thermal stress experiment. Crude cell culture supernatants were normalized based on the results of the titer quantitation and then incubated for 1 hour at room temperature and two higher temperatures. For the initial testing of PIV1 mutants, the two temperatures were 50° C. and 53° C. […] Anti-Human IgG Fc Capture (AHC) biosensors were first equilibrated in PB for before being dipped into more PB to establish the initial baseline. […] The mAb-bound biosensors were then dipped into the thermal stresses cell culture supernatants for 5 minutes.

PIV1026 = molecular target: T22, PIV1026 (PIV1); experiment: BLI, no stress;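 note: binding of thermally stressed PIV1 F mutant supernatant to mAb on AHC biosensors for 5 min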
T22 construct: S473V
Description: as §1, §3

PIV1036 = molecular target: T23, PIV1036 (PIV1); experiment: BLI, no stress;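 note: binding of thermally stressed PIV1 F mutant supernatant to mAb on AHC biosensors for 5 min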
T23 construct: G134A
Description: as §1, §3

PIV1027 = molecular target: T24, PIV1027 (PIV1); experiment: BLI, no stress;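 note: binding of thermally stressed PIV1 F mutant supernatant to mAb on AHC biosensors for 5 min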
T24 construct: S473L
Description: as §1, §3

PIV1023 = molecular target: T25, PIV1023 (PIV1); experiment: BLI, no stress
T25 construct: A466L
Description: as §1, §3

PIV1014 = molecular target: T26, PIV1014 (PIV1); experiment: BLI, no stress
T26 construct: Q92C-G134C
Description: as §1, §3

PIV1039 = molecular target: T27, PIV1039 (PIV1); experiment: BLI, no stress
T27 construct: A128P
Description: as §1, §3

PIV1024 = molecular target: T28, PIV1024 (PIV1); experiment: BLI, no stress
T28 construct: A466V
Description: as §1, §3

PIV1030 = molecular target: T29, PIV1030 (PIV1); experiment: BLI, no stress
T29 construct: A466L, S473A
Description: as §1, §3

PIV1028 = molecular target: T30, PIV1028 (PIV1); experiment: BLI, no stress
T30 construct: A480L
Description: as §1, §3

PIV1033 = molecular target: T31, PIV1033 (PIV1); experiment: BLI, no stress
T31 construct: T198A
Description: as §1, §3

B1: hMPV-2 mAb (antibody, V domains shown)
VH: QVQLQQSGAEVKKPGASVKVSCKASGYTFTSYGISWVRQAPGQGLEWMGWISGYNGNTNYAQTFQGTFTMTTDTSTSTAYMELRRLRSGDTAVYYCARDRYYASGSYNGMDVWGQGTTVTVSS
VL: QSALTQPPSASGAPGQRVTVSCSGSSSNVGSSSVYWYQQLPGTAPKLLIYRNNQRPSGVPDRFSGSKSGTSASLAISGLRSEDEADYYCAAWDDSLSGWVFGGGTKLTVLG
notes: human IgG1
Response Shift (hMPV125 [1]): 0.847 nm | Response Shift (hMPV118 [2]): 0.844 nm | Response Shift (hMPV131): 0.727 nm | Response Shift (hMPV121): 0.794 nm | Response Shift (hMPV120): 0.564 nm | Response Shift (hMPV125 [3]): 0.785 nm | Response Shift (hMPV135): 0.724 nm | Response Shift (hMPV118 [4]): 0.801 nm | Response Shift (hMPV130): 0.62 nm | Response Shift (hMPV138): 0.663 nm | Response Shift (hMPV117): 0.64 nm | Response Shift (hMPV129): 0.632 nm | Response Shift (hMPV119): 0.828 nm | Response Shift (hMPV122): 0.686 nm | Response Shift (hMPV137): 0.626 nm | Response Shift (hMPV140): 0.66 nm | Response Shift (hMPV132): 0.694 nm | Response Shift (hMPV136): 0.541 nm | Response Shift (hMPV B F WT Control): 0.122 nm | Response Shift (hMPV127): 0.674 nm | Response Shift (hMPV126): 0.73 nm | Response Shift (hMPV134): 0.665 nm | Response Shift (hMPV139): 0.65 nm

B2: PIV1-8 mAb (antibody, V domains shown)
VH: QVQLVQSGAEVKKPGSSVKVSCEASGGTFSNYVISWVRQAPGQGLEWMGGIIPVFATAKYAQKFQGRVTIIADQSTNTAYLELSSLRSDDTAVYFCASVDSGGTWWDAFAIWGQGTMVTVSS
VL: QAVVTQPRSVSGSPGQAVTISCTGTSSDVGGYNYVSWYQHHPGKAPKLIIYDVTKRPSGVPDRFSGSKSGNTASLTISGLQTEYEADYYCCSYAGSYTLVFGGGTKLTVLG
notes: human IgG1; also called hPIV1-8 mAb; hPIV1-8
Response Shift (PIV1031): 0.766 nm | Response Shift (PIV1026): 0.606 nm | Response Shift (PIV1036): 0.753 nm | Response Shift (PIV1027): 0.748 nm | Response Shift (PIV1023): 0.831 nm | Response Shift (PIV1014): 0.857 nm | Response Shift (PIV1039): -0.068 nm | Response Shift (PIV1024): 0.745 nm | Response Shift (PIV1030): 0.753 nm | Response Shift (PIV1028): 0.579 nm | Response Shift (PIV1033): -0.056 nm
